For one substance, pKa results are on record in publication PMC10971408.

Where “and” joins values, the source holds several entries; their conditions need not be identical. Equal entries are not always repeated.

This series deals with Cys101 (UniProt position 101, YVTSVCTGSLV). Nature of the series: crystallography. As to conditions: data collected at 100 K; crystals grown at 20°C; 200 mM MgCl2 in reservoir; 100 mM tris-HCl (pH 8.3), sodium citrate (pH 6.0), or sodium acetate (pH 4.2, 5.0, 5.4); 23% PEG 3350, 2 mM DTT; substrate-free wild-type enzyme in crystals, reduced Cys101 (DTT present).

By pKa is commonly meant the pH at which an ionisable group is half protonated. A higher pKa goes with a weaker acid or stronger base. Regarding “Isocyanide hydratase (ICH, PfICH) (Pseudomonas fluorescens)”, the pKa was 5.7 and 5 to 6.
